Assay results from US20220251191A1 (ARCH ONCOLOGY, published 2022).

T1: recombinant biotin tagged IL-7 Receptor-alpha (IL-7Rα) (Acrobiosystems #IL-7-H82F8) (UniProt P16871 21-236, biotin tag (site not stated))
T1 construct: Bought reagent; also called IL-7Ra; α receptor
T1 sequence (looked up): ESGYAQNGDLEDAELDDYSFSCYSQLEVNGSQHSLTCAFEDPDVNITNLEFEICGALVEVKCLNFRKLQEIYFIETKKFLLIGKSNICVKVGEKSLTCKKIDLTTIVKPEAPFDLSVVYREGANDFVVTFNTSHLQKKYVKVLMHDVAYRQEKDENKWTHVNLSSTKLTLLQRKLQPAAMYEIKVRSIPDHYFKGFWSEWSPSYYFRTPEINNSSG

T2: IL-7Rα with 20 nM receptor γ (UniProt P16871 21-236; P31785 23-262, biotin tag (site not stated))
T2 chain 1: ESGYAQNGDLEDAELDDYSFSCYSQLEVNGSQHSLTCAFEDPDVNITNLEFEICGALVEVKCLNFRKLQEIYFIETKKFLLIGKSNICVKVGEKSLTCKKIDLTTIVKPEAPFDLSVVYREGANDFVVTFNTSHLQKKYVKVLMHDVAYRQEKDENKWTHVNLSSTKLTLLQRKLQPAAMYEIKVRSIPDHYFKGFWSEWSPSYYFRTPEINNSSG
T2 chain 2: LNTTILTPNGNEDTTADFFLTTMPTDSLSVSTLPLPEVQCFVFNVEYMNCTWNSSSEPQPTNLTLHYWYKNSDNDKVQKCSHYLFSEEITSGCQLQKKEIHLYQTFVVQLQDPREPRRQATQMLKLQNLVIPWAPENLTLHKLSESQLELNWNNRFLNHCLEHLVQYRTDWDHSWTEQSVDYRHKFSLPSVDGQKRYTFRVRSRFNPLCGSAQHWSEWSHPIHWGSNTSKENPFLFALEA

T3: IL-7Rα with 20 nM receptor γ (UniProt P16871 21-236; P31785 23-262, biotin tag (site not stated))
T3 construct: Mixture of IL-7Rα and soluble receptor γ in the TR-FRET assay; The fit treated the receptor chains as one combined unit; also called IL-7Ra with the γ subunit; IL-7 with γ
T3 sequence (looked up) 1: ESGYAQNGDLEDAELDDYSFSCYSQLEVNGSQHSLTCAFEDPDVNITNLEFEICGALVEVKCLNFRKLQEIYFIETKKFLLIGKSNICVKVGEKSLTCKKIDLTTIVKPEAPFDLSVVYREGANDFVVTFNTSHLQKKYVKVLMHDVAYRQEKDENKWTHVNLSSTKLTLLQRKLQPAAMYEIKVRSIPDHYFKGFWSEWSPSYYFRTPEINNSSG
T3 sequence (looked up) 2: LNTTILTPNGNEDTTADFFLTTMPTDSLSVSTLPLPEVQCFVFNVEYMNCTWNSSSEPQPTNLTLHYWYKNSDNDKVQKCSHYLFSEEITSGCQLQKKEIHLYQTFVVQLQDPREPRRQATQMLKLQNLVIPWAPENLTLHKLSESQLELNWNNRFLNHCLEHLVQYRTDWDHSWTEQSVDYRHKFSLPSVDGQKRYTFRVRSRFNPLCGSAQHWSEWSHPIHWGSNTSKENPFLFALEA


Legend:
[1] = biological target: T1, recombinant biotin tagged IL-7 …; experiment: TR-FRET, His-tagged IL-7 and biotin IL-7Rα, equilibrium fit (FIG. 3)
Description: (§1) IL-7 binding affinity was determined by measuring the TR-FRET fluorescence signal at a range of concentrations of recombinant IL-7 and IL-7 Receptor-alpha (IL-7Rα). In a buffer of PBS (pH 7.4)+0.05% BSA and 0.005% Tween-20, make 4×stocks of 160 nM TR-FRET acceptor linked α6-his IgG (Perkin Elmer #TRF0105-M), 80 nM TR-FRET donor linked streptavidin (Perkin Elmer #AD0062), recombinant 6-his tagged IL-7 wildtype or mutant variant (at concentrations up to 160 nM), and recombinant biotin tagged IL-7Rα (Acrobiosystems #IL-7-H82F8) (at concentrations up to 80 nM). For each sample to be tested, 5 μL of the 4× stock of a6-his IgG linked acceptor is mixed with 5 μL of a 4×working stock of IL-7. Separately, for each sample, 5 μL of 4×TR-FRET donor linked to streptavidin is mixed with 5 μL of the 4×working stock of recombinant IL-7Rα linked to biotin. […] Plates were immediately spun at 750 rpm for 30 sec and then immediately placed in PHERAstar plate reader (BMG Labtech) to read TR-FRET signal. Continuously over the next 30 minutes, fluorescence for donor signal (337 nm excitation/620 nm emission) and acceptor signal (337 nm excitation/655 nm emission) are read. The TR-FRET binding signal is determined by taking the ratio of acceptor signal over donor signal and multiplying by 10,000. Equilibrium is defined at the time point where the readings plateau before fluorescence activity begins to decay. […]

[2] = biological target: T1, recombinant biotin tagged IL-7 …; experiment: TR-FRET, previous analyses
[3] = biological target: T2, IL-7Rα with 20 nM receptor γ; experiment: TR-FRET; with gamma
[4] = biological target: T1, recombinant biotin tagged IL-7 …; experiment: TR-FRET, Expt. 1
Description: as §1

[5] = biological target: T1, recombinant biotin tagged IL-7 …; experiment: TR-FRET, only the α receptor present (FIG. 4)
Description: as §1

[6] = biological target: T1, recombinant biotin tagged IL-7 …; experiment: TR-FRET ligand-receptor binding assay, equilibrium fit
Description: IL-7 binding affinity was determined by measuring the TR-FRET fluorescence signal at a range of concentrations of recombinant IL-7 and IL-7 Receptor-alpha (IL-7Rα). In a buffer of PBS (pH 7.4)+0.05% BSA and 0.005% Tween-20, make 4×stocks of 160 nM TR-FRET acceptor linked α6-his IgG (Perkin Elmer #TRF0105-M), 80 nM TR-FRET donor linked streptavidin (Perkin Elmer #AD0062), recombinant 6-his tagged IL-7 wildtype or mutant variant (at concentrations up to 160 nM), and recombinant biotin tagged IL-7Rα (Acrobiosystems #IL-7-H82F8) (at concentrations up to 80 nM). For each sample to be tested, 5 μL of the 4× stock of a6-his IgG linked acceptor is mixed with 5 μL of a 4×working stock of IL-7. Separately, for each sample, 5 μL of 4×TR-FRET donor linked to streptavidin is mixed with 5 μL of the 4×working stock of recombinant IL-7Rα linked to biotin. Mixtures were incubated at room temperature for 30 minutes during which the 10 μL of a6-his linked acceptor/IL-7 mix was distributed into indicated wells in 384-well shallow black ProxiPlate (Perkin Elmer #6008260) and kept covered from light. After the 30 min incubation, 10 μL of streptavidin linked donor/IL-7Ra mixture was placed in designated wells containing designated concentration of IL-7 plus acceptor. Plates were immediately spun at 750 rpm for 30 sec and then immediately placed in PHERAstar plate reader (BMG Labtech) to read TR-FRET signal. Continuously over the next 30 minutes, fluorescence for donor signal (337 nm excitation/620 nm emission) and acceptor signal (337 nm excitation/655 nm emission) are read. The TR-FRET binding signal is determined by taking the ratio of acceptor signal over donor signal and multiplying by 10,000. Equilibrium is defined at the time point where the readings plateau before fluorescence activity begins to decay. Equilibrium values are then fit to a standard equilibrium equation assuming single site binding using the graphing program GraFit (Erithacus Software).

[7] = biological target: T1, recombinant biotin tagged IL-7 …; experiment: TR-FRET, earlier analyses
[8] = biological target: T1, recombinant biotin tagged IL-7 …; experiment: TR-FRET, without receptor γ (FIG. 5)
Description: as §1

[9] = biological target: T1, recombinant biotin tagged IL-7 …; experiment: TR-FRET, Expt. 2
Description: as §1

[10] = biological target: T3, IL-7Rα with 20 nM receptor γ; experiment: TR-FRET, with 20 nM receptor γ against without (FIG. 5)
Description: as §1

[11] = biological target: T1, recombinant biotin tagged IL-7 …; experiment: binding analysis with two Kd parameters, in-house against commercially obtained IL-7 (taken to be TR-FRET on IL-7Rα)

Binder | Kd [1] [nM] | Kd [2] [nM] | Kd [3] [nM] | Kd [4] [nM] | Kd [5] [nM] | Kd [6] [nM] | Kd [7] [nM] | Kd [8] [nM] | Kd [9] [nM] | fold increase in apparent affinity with receptor γ against without [10] [fold] | fold higher Kd than in-house IL-7 [11] [fold]
IL-7 WT (in-house with His tag) (ligand, also called IL-7 WT (in-house-His 6); in-house IL-7) MDCDIEGKDGKQYESVLMVSIDQLLDSMKEIGSNCLNNEFNFFKRHICDANKEGMFLFRAARKLRQFLKMNSTGDFDLHLLKVSEGTTILLNCTGQVKGRKPAALGEAQPTKSLEENKSLKEQKKLNDLCFLKRLLQEIKTCWNKILMGTKEHENLYFQGHHHHHH | 5.44 | 6 | 2.75 | 14 | 20.2 | 17 | 6.6 | 12.1 | 20 | 5 | 
IL-7 S1 with C-terminal His-tag (ligand, also called IL-7 mutant S1; S1 mutant) MDCDIEGKDGIQYESVLMVSIDQLLDSMKEIGSNCLNNEFNFFKRHICDANKEGMFLFRAARKLRQFLKMNSTGDFDLHLLKVSEGTTILLNCTGQVKGRKPAALGEAQPTKSLEENKSLKEQKKLNDLCFLKRLLQEIKTCWNKILMGTKEHENLYFQGHHHHHH |  |  |  | 37 | 34.8 | 55 |  |  | 72 |  | 
IL-7 WT (commercial-sourced) (ligand, also called commercially obtained IL-7; commercial IL-7) MDCDIEGKDGKQYESVLMVSIDQLLDSMKEIGSNCLNNEFNFFKRHICDANKEGMFLFRAARKLRQFLKMNSTGDFDLHLLKVSEGTTILLNCTGQVKGRKPAALGEAQPTKSLEENKSLKEQKKLNDLCFLKRLLQEIKTCWNKILMGTKEH |  |  |  |  |  | 21.7 |  |  |  |  | ~4
